Data on 22 sequences can be found in the DeepSol protein solubility set.

The nature of this series: soluble on expression in E. coli; label from the status in PepcDB or PDB records.
Turning to “MTKPLDGINVLDFTHVQAGPACTQMMGFLGANVIKIERRGSGDMTRGWLQDKPNVDSLYFTMFNCNKRSIELDMKTPEGKELLEQMIKKADVMVENFGPGALDRMGFTWEYIQELNPRVILASVKGYAEGHANEHLKVYENVAQCSGGAAATTGFWDGPPTVSGAALGDSNSGMHLMIGILAALEIRHKTGRGQKVAVAMQDAVLNLVRIKLRDQQRLERTGILAEYPQAQPNFAFDRDGNPLSFDNITSVPRGGNAGGGGQPGWMLKCKGWETDADSYVYFTIAANMWPQICDMIDKPEWKDDPAYNTFEGRVDKLMDIFSFIETKFADKDKFEVTEWAAQYGIPCGPVMSMKELAHDPSLQKVGTVVEVVDEIRGNHLTVGAPFKFSGFQPEITRAPLLGEHTDEVLKELGLDDAKIKELHAKQVV”, the “soluble on expression in E. coli” value is “soluble”.

Take “MTKRHVSLPADAKDVRRAFVSGVDERLSAAETPDELATAVTGTLADLRGERDAYEAWRDGDDVRPAAAARLATLDPRNASLESEYYAEKDEAAFARSKPLQWLWRQFDTTPLADNVDVALPFRRMLAGHLFAGVGEDVRLFKGITMTYGHNIELGDNAVVHDGVHLDDRGELVVGARASVSNGAHLYTHDHDVVDQTDVTNYRTEIGADARVTQGALVRAGVRVGENALVGSRSVVQGDVPAHHIAVGSPAESVRVKPGWEAVAAPLDAGLEHHHHHH”: the “soluble on expression in E. coli” value is on record as “soluble”.

For “MTKSELMVRLAEVFAAKNGTHLLAKDVEYSVKVLVDTMTRSLARGQRIEIRGFGSFDLNHRPARIGRNPKTGERVEVPEKHVPHFKPGKELRERVDLALKENAN”, the “soluble on expression in E. coli” value is “not soluble”.

Take “MTKSKIIEIGPLVPAFEEEKIVILFGPTATNELREISVIHEFEAAPQSALSKGNTLQIGDQVYIIEEVGTEANKNLEELGHISIYFRSGQNEVLPGAIVVSPEVFPTLAIGDTIQ”: the “soluble on expression in E. coli” value is “not soluble”.

Regarding “MTKTMIRLASEQDAEKLQQLMHEAFTPLRELGIDWPSVNANLDAVKENIDKNTTFVMTIDDEIISTITVRYPWGSVKSISGYPFVWWFATNPEYEGKGYGSQLLTYVEEAFLRDTLKSAAVTLGTSARLHPWLLKIYEKRGYEIYSEHENDDGDLGVIMRKVLIPERFDETILGQPPF”, the “soluble on expression in E. coli” value is “not soluble”.

Take “MTKVDFWPTLKDAYEPLYPQQLEILRQQVVSEGGPTATIQSRFNYAWGLIKSTDVNDERLGVKILTDIYKEAESRRRECLYYLTIGCYKLGEYSMAKRYVDTLFEHERNNKQVGALKSMVEDKIQKETL”: the “soluble on expression in E. coli” value was “soluble”.

As for “MTKVTIKAPSDYLQTDWSGGETNQLFLYPEDGDYKKREFSYRLSTATVALRQTTFTRLDGYHRILMSLDKPITLSDLSHAKEISLAPFQPYAFEGDTRIVSRGTCQDINLMYDDQYQGQLLPVWSDTPFEAPKADCQLLYALSKLTYSVTNQANQELEANHLLVTEQEASLSDLKVCLNQTSPAQTPVAVWAGLWYKT”, the “soluble on expression in E. coli” value is “not soluble”.

With “MTLDDSSLQKFGFIKRETLGSINIDPLQTGGLLTGAAKQALVEWGDGYSVCDFCGGVLDLVKKPPIHDFVHKALPEFLGCDEARVTNGARESKFAVMHSMGKPGDWVVLDGLAHYSSYVAAERAGLNIEVVPHAGSPEYHLDPGRYGKAIEEVTKENGKPPVLALVTYPDGSYGNIPDAAKIASVCHEYDVPLLLNGAYSVGRMPVSAKEIGADFIVGSGHKSMAASGPVGVLGVSEEYAPVVFRKSVHNKVKEIELLGCTARGATVMTLMASFPEVVKRTRNWDQEVENARWFSSRLEGMGFIQRGQKPHSHDLMFFEAPGFYEISQKVKNGRYFLYRELKERNIHGIKSGLTKYFKLSTFGLGKEKLGTVADAFEDILKKYENI”, the “soluble on expression in E. coli” value is listed as “not soluble”.

As to “MTLDLFAPQPKTNLLPYDGDVEDYGCFISTAEAEQYFQYFLKHLAWRHDEARLYGKHFITPRQVAWYGDDHYRYAYSGIMRDSLPWDPQLLILKQQIEQTLAERFNSCLANLYQEGTQGMAWHSDGDMSLAKQTTIASLSLGATRKFCFRHLRTKEKIEMQLQSGQLIVMRGETQQHWQHAIMKSQKVIHPRINLTFRQFLLLEHHHHHH”, the “soluble on expression in E. coli” value is on record as “not soluble”.

On to “MTLGLKDLYYAVCTEADGAESYGTPKKMAEAMSADLSVKTADGSLYADDTLSESVTEFASGTLKLGIKDLTPEVLAELLGQAVDKNSVVWAGKEDEPPYVAVGFRAKKTGGKYRYVWLLKAKFKVPSEKYETKGESIKFNTPDIEASFTTRKKDNLWKADFVGTEESAAAKTWFTAVPEKAAAMESVLEHHHHHH”, for which the “soluble on expression in E. coli” value was “soluble”.

With “MTLLPHLATRLFGVPLAIDRPKLDVILSVLGPRVGLAGLAPPGDYTPPERNPVRGHAQIAVIPIHGTLVRRTVGLEAESGLASYTAIGEQLDAALADPGIAAILLDVDSPGGESGGVFDLADRIRVAAAIKPVWAAANDMAFSAAYALACAASRVFVSRTGGVGSIGVIAMHVDQSVKDAKDGVRYTAVFAGARKNDLNPHEPITDEAQAQLQAEVSRIYRLFVATVGSYRGLSAEAVTATEAGLFFGQDAVAAGLADAVGTFDDALAQLTASLSVPAPVASARTPSLNLQMDCSMNTQPDPAAVSVPAADAIGTTAQPPVVASPPAASVASHTDAVEIAQLCTLAGRTDLIAGFLEARATPERVRSQLLAARAEASPEIASRIDPHAQAVSADASHPASPRNPLLQAVKKRLGIQLEHHHHHH”, the “soluble on expression in E. coli” value is on record as “soluble”.

As to “MTLNYHAHGKEIEASYRRASDDSDGDKWVIFDYEGNSNTLRVKEEGTGGLEEFADSFSSGKLQFGVISVRLSSDVFPKIVLVHWQGEGVPTLRLASTTPHAEEFRRFLKTVHIVLHARSEIDIEPDAIRKEVRKLPAANANAIVESTYSMPEKVNSVYQPTNAHSELSSEARENFWSTTNQEEKRRQADEKVAHAKQQKQYEADRDRTAAAIHTKAEDFQPEKVNSVYKPTKPHVELKTVKREEFWSKMNEEEKLRQEEEKTAREQAHKQFEADRQRMASEIHSKTENYQPDKVTSVYKPTKPHVEISSSAREEFWSKMNEEEQRRQAEEKEAQAQKQKEFETDRKRIADDLHGKAQISDKPVPSSVNPAPAPAPTPSAGLVGSRKELFSSKPSGPVLPKPQVNGSPKKWPPVGTTSPPREPVNRLTEPDEPSTYTPKPIAYEPEPMVYKPEAMKPAVSYDAYEEPPAEPAPPTFLAPTPVIAPPPPEPTPAPSHYASQYDAPPVHESFEPAVPPVSAPSHYASQYDAPPEPIDSHSSSSQLPAHIASQYDMPPVMPEEPVFAPKSSPIKVAAPPIDQYDFPPAVAEQNAMALWDYQAADDTEISFDPDDIITDIDQVDSGWWKGRAPSGRVGLFPANYVKLI”, the “soluble on expression in E. coli” value is on record as “not soluble”.

With “MTLRAARPEFLDLFPAGAEARRLADGFTWTEGPVYVPARSAVIFSDVRQNRTWAWSDDGQLSPEMHPSHHQNGHCLNKQGHLIACSHGLRRLERQREPGGEWESIADSFEGKKLNSPNDVCLAPDGSLWFSDPTYGIDKPEEGYGGEMELPGRWVFRLAPDGTLSAPIRDRVKPNGLAFLPSGNLLVSDTGDNATHRYCLNARGETEYQGVHFTVEPGKTDGLRVDAGGLIWASAGDGVHVLTPDGDELGRVLTPQTTSNLCFGGPEGRTLYMTVSTEFWSIETNVRGLEHHHHHH”, the “soluble on expression in E. coli” value is listed as “soluble”.

With “MTLSTINPMKKSRIDNIHHTQILFFSDENQIDQEAPYYDALLDLEKDYPEQIDKMKVYDKKEGWEDEIETVPTLMVVDQRHVVVKIEGCVKKKEDIIKPLQHVLSKLEHHHHHH”, the “soluble on expression in E. coli” value is given as “not soluble”.

On to “MTLVSQIEAILFVVGEEGIGLEELAYLLEKSTAKTYEELTKLKEHYASDNKSALNILEVGNHFVLTTKKKYASLLKKYAQSPMSNALSQAALETLSIIAYKQPISRIEIDEIRGVQTSGSIQKLVARQLIEEKGRVDGPGRAILYGTTKYFMDYFGLKSLDELPDIQQMEDELEEELPMDLFFDRYQETNPMSETTEGEEA”, for which the “soluble on expression in E. coli” value is “not soluble”.

On to “MTLYIIANPHAGNKNASTIVGKIQELYHTEDISVFYTEQKDDEKKQVINILRSFKESDHLMIIGGDGTLSKVMTYLPQHIPCTYYPVGSGNDFARALKIPNLKETLTAIQTERLKEINCFIYDKGLILNSLDLGFAAYVVWKASNSKIKNILNRYRLGKITYIVIAIKSLLHSSKVQVLVEGETGQQIKLNDLYFFALANNTYFGGGITIWPKASALTAELDMVYAKGHTFLKRLSILLSLVFKRHTTSKSIKHQTFKAMTVYFPKNSLIEIDGEIVELDQISLKCQKRYLYM”, for which the “soluble on expression in E. coli” value is reported as “not soluble”.

As for “MTLYPKLILDALATVRYPGTGKNLLEAEMVADNLRIDGMAVSFSLIFEKPTDPFMKSMLKAAETAIHTYVSPDVQVTITTESKQAARPEVGKLLPQVKNIIGISSGKGGVGKSTVSANLAVALAKLGYKVGLLDADIFGPSMPKMFQVEDARPYAEKINGRDLIIPVEKYGVKLLSIGFFVDPDQATLWRGGMASNALKQLIGDADWGDLDYFLIDLPPGTSDIHLTVVQTLAMTGAIVVSTPQAVALADARKGINMFTNDKVNVPILGLVENMAWFTPAELPENKYYIFGKEGAKKLAEEMNVPLLGQIPIVQSICEGGDNGTPVALDEDTVTGRAFLSLAASVVRQVDRRNVEMAPTKIVEMH”, the “soluble on expression in E. coli” value is “not soluble”.

Take “MTNDNSGIWVLGYGSLIYKPPSHYTHRIPAIIHGFARRFWQSSTDHRGTPANPGRVATLIPYEDIIRQTAFLKNVNLYSESAPIQDPDDLVTIGVVYYIPPEHAQEVREYLNVREQNGYTLHEVEVHLETNREHEAELGEALEQLPRHNKSGKRVLLTSVYIGTIDNEAFVGPETVDETAKVIAVSHGPSGSNYEYLAKLEQALAQMPIMKERGRITDHYLTALLETVNKYR”: the “soluble on expression in E. coli” value was “soluble”.

As for “MTNDYQQLNYLVETDDEADIIIANLVKQLNELKEILLSLDNQDLEINQVNHRTTVHNTSSNTSNNSTSNNIADGNYNSNFFHNFSKETLQTQAKRGFLLLERCSLVGLQQLELEYLNVLGRSFESHQDKINFLVNLRDLTNDHLLDTEKIVSTLEQIFNVIGGTEYTPILNSFFNQSLNDPDPIQREIGLKQFVANLRQRFKTLLQKTNNSIQQLEAEIQIPTTHIKSDEVMFGPPDMNERLVLNDSETDAILRSIEAELESALQNKKQVVVTAVPPIAANLATDSISQETLEHNLNNTETVNTTTVTVTSASETQVRKPQISLRPIFQGNFPKRLSREDIQRYAHQLQELEQSNEG”, the “soluble on expression in E. coli” value is recorded as “soluble”.

As to “MTNEKGLDKGYELVAKMHEVFGHPVTNTPTKLTEERAKIRASFMQEELEEFLEATTVEDQYDALIDLIYFAFGTFAEMGVRPDKGFEIVNNANMAKLFPDGKPRFREGDGKILKPEGWQAPEPQLRAEIERQRQEAEKNC”, the “soluble on expression in E. coli” value is on record as “soluble”.

“MTNNSTKVCVLLATYNGTKWCLDQVKSILNQEDVNLEVFVSDDLSSDSTTDLLALLNDSRIHILASSYKFGSACQNFFRLVRDVDFSEYDYIAFADQDDLWNPNKLSYSIEQLNAHCADAFSSNVTAFWPDGRARLIVKDQPQREWDFLFESAGPGCTFVLTKKLACNLANFLHNNYEKTKGVALHDWFTYAFARSNSYSWWIDSQPTMMYRQHESNEFGVNSGVTAALSRFRKTSNGWYRNQVILIGDLVGAEDSWPIKRMRRFSLLDRMLLLFNVFAFRRSFRDRIALFFLLLLPQKKLEHHHHHH”: the “soluble on expression in E. coli” value is on record as “soluble”.

On to “MTPDVLFESLWQDYIQRLCPSAAKVHQLLQEDEALINDHIALRTFNVEPLGIETLAKPFLAAGYKACGDYVFESKKLVAKHYEHPDPKQPKVFISELKVEECSPDLQDIVAKLASQVDAEKLSGSAFLHGGRLWDLSFADYQTLAKESEYASWLAAHGYGANHFTVSVNQLNQHDEVKQVNDHLRQAGFVINESGGEVKGSPEVLLEQSSTMADKVPVTFEEGLEIIPGGFYEFAKRYPMENGELYPGFVAASADKIFESTNGLEHHHHHH”, for which the “soluble on expression in E. coli” value is recorded as “soluble”.
